Where two headings read alike, the source gives them in different places.
How the values were obtained:
[1] = molecular target: T1, Cdc45 (Homo sapiens, UniProt O75419 1-566); experiment: EMSA
T1 sequence: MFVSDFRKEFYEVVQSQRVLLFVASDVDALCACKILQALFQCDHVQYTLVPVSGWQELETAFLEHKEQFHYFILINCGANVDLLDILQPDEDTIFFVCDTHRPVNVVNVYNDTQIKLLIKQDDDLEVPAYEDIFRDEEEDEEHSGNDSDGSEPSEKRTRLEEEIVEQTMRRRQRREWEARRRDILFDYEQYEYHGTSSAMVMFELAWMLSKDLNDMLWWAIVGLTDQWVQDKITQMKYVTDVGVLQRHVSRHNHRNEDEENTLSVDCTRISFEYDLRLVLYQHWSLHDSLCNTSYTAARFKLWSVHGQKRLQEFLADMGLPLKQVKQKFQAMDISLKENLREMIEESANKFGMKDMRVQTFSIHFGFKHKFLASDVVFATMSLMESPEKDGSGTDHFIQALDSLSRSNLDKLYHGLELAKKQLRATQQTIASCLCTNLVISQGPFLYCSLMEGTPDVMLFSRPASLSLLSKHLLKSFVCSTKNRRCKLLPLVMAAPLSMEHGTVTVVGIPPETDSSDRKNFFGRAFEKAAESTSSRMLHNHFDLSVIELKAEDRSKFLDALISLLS

[2] = molecular target: SSB (Escherichia coli, UniProt P0AGE0 1-178); experiment: EMSA
[3] = molecular target: T2, RPA heterotrimer (RPA70/RPA32/RPA14) (Homo sapiens, UniProt P27694;P15927;P35244 1-616;1-270;1-121); experiment: EMSA
[4] = molecular target: T2, RPA heterotrimer (RPA70/RPA32/RPA14); experiment: SPR
[5] = molecular target: T2, RPA heterotrimer (RPA70/RPA32/RPA14); experiment: EMSA; remark: listed apart in the source
[6] = molecular target: T2, RPA heterotrimer (RPA70/RPA32/RPA14); experiment: SPR; remark: listed apart in the source

T2 sequence (P27694 whole entry, chain 1 of 3): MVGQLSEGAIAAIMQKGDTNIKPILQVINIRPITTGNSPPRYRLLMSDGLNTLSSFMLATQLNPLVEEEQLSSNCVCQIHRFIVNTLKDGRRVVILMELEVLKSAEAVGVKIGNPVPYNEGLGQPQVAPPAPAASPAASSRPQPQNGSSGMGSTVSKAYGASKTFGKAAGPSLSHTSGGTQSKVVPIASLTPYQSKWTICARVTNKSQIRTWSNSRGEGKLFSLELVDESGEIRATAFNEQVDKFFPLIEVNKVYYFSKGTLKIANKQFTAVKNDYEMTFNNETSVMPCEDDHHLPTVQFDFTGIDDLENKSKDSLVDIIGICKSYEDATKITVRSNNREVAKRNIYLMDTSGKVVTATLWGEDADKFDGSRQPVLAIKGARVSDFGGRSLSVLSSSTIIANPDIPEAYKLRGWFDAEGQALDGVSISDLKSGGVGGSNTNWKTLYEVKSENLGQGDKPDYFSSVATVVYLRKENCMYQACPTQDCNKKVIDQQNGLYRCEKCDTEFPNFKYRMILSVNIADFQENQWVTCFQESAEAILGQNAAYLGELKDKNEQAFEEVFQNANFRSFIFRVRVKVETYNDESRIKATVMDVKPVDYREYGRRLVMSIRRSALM
T2 sequence (P15927 whole entry, chain 2 of 3): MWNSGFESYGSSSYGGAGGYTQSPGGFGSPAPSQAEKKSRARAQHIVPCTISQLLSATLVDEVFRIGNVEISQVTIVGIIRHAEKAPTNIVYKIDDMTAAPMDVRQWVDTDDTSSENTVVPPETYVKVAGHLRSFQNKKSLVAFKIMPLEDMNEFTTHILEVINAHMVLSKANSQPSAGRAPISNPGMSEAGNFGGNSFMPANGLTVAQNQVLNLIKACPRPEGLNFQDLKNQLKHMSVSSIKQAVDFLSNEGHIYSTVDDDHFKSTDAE
T2 sequence (P35244 whole entry, chain 3 of 3): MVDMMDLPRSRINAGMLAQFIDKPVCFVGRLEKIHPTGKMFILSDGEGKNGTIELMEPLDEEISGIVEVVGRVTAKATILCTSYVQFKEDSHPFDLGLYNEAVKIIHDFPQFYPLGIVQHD
SSB, sequence (P0AGE0 whole entry): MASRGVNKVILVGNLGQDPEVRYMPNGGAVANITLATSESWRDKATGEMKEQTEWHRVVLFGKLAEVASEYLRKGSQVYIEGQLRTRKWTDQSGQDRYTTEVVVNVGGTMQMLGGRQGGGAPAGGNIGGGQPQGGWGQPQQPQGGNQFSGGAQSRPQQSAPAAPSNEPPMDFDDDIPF

GCTTGCATGCCTGCAGGCCAGCCTCAATCTCATC (ssDNA) [M2 (34-mer)]
binding result [1]: no binding
binding result [2]: binds
binding signal [3]: > 5 fold vs RPA alone

GCTTGCATGCCTGCAGGCCAGCCTCAATCTCATC (ssDNA) [M2-biotin (34-mer)]
Kd [4]: 1.53 ± 1.3 nM

B1: M5 (67-mer; called 65-mer in text) (ssDNA)
DNA: GTACCCGGGGATCCTCTAGAGTCGACCTGCAGGCATGCAAGCTTGGCACTGGCCGTCGTTTTACAAC
binding signal [5]: ~4 fold vs RPA alone

GGCTGGCATG (ssDNA) [M10-biotin (10-mer)]
Kd [6]: 112 ± 14 nM
Kd [4]: 44.1 ± 4.7 nM

Reference: PMC5389570
